From IntAct's records for PubMed 29040270

B1: Rho-related GTP-binding protein RhoE (Homo sapiens), P61587 (parent)
chain: MKERRASQKLSSKSIMDPNQNVKCKIVVVGDSQCGKTALLHVFAKDCFPENYVPTVFENYTASFEIDTQRIELSLWDTSGSPYYDNVRPLSYPDSDAVLICFDISRPETLDSVLKKWKGEIQEFCPNTKMLLVGCKSDLRTDVSTLVELSNHRQTPVSYDQGANMAKQIGAATYIECSALQSENSVRDIFHVATLACVNKTNKNVKRNKSQRATKRISHMPSRPELSAVATDLRKDKAKSCTVM

What was measured:
[1] = variants of: B1; conditions: with plxb1_human PLXNB1, O43157
[2] = variants of: B1; conditions: with plxb2_human PLXNB2, O15031
Sequence of plxb2_human PLXNB2, O15031 (O15031 whole entry): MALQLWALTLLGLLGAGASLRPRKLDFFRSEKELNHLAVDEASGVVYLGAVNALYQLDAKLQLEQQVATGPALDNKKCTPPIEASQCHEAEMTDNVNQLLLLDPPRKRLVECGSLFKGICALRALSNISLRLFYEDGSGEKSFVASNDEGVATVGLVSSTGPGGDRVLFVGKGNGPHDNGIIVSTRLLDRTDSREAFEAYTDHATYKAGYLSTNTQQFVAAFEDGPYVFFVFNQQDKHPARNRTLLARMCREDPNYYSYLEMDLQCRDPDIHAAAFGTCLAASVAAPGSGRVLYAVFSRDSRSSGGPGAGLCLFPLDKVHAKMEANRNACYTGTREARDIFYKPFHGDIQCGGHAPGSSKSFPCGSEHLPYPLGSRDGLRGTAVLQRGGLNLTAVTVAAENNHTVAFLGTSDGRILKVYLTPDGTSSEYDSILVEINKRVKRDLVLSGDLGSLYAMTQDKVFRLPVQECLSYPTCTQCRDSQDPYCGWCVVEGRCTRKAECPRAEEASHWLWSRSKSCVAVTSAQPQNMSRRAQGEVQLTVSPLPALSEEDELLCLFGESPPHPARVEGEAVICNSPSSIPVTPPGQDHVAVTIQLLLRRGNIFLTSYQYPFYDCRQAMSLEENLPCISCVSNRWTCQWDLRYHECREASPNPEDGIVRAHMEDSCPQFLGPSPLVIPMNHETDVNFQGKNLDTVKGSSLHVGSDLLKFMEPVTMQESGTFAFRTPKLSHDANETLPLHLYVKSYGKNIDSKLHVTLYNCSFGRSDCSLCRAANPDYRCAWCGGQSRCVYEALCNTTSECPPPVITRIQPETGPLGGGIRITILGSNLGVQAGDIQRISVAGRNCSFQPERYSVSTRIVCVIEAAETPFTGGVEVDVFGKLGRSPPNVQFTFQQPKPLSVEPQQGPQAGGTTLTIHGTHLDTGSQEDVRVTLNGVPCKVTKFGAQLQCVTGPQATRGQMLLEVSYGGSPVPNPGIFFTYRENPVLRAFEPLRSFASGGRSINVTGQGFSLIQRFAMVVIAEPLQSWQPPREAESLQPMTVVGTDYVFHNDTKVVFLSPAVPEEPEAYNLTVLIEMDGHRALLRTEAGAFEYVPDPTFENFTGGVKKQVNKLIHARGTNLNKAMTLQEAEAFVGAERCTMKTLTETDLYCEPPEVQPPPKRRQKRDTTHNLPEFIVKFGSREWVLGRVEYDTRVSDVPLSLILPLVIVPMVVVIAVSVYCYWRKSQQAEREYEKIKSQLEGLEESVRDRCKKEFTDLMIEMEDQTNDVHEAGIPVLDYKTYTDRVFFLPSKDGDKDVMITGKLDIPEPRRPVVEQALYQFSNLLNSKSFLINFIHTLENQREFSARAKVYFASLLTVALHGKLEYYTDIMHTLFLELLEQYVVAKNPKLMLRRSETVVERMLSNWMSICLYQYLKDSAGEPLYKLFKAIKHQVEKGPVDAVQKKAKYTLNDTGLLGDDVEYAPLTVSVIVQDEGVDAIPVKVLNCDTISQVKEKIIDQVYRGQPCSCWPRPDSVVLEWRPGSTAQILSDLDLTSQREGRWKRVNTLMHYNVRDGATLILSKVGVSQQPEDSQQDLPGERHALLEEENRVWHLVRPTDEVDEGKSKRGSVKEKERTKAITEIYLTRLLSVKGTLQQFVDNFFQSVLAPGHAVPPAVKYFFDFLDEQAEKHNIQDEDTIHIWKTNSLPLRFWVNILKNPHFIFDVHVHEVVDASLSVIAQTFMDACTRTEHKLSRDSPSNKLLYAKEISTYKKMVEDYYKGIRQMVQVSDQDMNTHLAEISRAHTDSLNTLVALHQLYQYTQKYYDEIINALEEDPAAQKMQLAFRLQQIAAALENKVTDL

Sequence of plxb1_human PLXNB1, O43157 (O43157 whole entry): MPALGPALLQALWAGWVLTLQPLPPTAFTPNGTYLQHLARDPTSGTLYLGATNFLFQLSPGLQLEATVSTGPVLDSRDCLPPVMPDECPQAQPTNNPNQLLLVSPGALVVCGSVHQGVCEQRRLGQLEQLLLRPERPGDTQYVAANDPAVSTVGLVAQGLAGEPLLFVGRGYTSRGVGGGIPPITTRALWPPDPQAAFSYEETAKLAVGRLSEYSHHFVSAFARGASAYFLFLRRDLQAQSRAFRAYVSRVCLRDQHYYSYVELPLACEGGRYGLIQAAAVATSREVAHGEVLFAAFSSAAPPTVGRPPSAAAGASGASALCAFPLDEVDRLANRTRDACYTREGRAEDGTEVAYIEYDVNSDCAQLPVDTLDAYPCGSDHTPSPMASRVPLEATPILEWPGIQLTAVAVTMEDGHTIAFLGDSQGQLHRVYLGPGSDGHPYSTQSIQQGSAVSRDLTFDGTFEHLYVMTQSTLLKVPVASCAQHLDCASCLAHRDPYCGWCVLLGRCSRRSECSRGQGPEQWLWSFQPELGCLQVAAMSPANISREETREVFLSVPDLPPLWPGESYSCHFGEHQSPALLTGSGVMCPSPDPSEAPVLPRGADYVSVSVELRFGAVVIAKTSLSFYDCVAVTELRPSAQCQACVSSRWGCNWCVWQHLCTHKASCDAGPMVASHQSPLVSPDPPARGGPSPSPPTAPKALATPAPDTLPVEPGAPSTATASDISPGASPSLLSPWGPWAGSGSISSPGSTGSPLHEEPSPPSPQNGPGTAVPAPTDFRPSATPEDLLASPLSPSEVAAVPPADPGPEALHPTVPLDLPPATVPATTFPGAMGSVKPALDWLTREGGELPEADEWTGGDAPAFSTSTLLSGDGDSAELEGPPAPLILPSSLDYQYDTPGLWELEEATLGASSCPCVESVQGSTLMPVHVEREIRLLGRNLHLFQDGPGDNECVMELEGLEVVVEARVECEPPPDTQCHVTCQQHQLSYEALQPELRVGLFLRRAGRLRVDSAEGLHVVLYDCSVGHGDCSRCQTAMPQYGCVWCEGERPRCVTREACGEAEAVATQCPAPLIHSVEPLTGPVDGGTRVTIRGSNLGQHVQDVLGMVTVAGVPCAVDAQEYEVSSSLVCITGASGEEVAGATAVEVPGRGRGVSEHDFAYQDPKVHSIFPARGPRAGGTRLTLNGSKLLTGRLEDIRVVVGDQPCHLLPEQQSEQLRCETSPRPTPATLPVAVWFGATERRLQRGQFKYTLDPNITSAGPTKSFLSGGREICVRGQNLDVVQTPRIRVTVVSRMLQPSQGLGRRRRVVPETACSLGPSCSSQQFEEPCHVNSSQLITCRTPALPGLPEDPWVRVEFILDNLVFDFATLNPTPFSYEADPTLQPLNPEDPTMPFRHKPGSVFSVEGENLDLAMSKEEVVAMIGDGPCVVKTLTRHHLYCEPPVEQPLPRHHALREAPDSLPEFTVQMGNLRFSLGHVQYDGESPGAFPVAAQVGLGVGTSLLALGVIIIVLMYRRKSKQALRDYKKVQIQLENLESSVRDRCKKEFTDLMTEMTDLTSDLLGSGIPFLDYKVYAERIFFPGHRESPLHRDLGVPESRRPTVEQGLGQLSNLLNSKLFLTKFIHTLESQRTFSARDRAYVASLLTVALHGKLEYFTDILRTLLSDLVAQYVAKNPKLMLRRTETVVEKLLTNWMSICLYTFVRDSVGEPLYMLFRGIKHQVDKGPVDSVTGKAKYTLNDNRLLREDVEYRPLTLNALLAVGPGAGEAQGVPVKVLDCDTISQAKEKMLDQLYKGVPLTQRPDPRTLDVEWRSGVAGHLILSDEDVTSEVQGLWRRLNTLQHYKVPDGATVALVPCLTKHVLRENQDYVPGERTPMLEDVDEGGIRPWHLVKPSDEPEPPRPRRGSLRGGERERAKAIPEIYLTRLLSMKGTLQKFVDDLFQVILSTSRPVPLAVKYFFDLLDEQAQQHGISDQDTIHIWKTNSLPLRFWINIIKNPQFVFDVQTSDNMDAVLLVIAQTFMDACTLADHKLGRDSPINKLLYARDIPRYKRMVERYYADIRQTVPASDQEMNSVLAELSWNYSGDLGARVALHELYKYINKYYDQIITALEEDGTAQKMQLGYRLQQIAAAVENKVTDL

**Q.** With F124Y as the variant, how does the “effect of a mutation on the interaction” value [1] read?
**A.** Its value is “with no effect”.

**Q.** And the “effect of a mutation on the interaction” value [2]?
**A.** The value was “with no effect”.

**Q.** With N86R as the variant, how does the “effect of a mutation on the interaction” value [1] read?
**A.** Its value is “with no effect”.

**Q.** And the “effect of a mutation on the interaction” value [2]?
**A.** Its value is “with no effect”.

**Q.** With L90R as the variant, how does the “effect of a mutation on the interaction” value [1] read?
**A.** Its value is “disrupting interaction strength”.

**Q.** What about the “effect of a mutation on the interaction” value [2] of the same variant?
**A.** The value was “disrupting interaction strength”.

**Q.** With Y60A as the variant, how does the “effect of a mutation on the interaction” value [1] read?
**A.** Its value is “with no effect”.

**Q.** And the “effect of a mutation on the interaction” value [2]?
**A.** Its value is “with no effect”.

**Q.** How did the “effect of a mutation on the interaction” value [1] turn out when V87R was run?
**A.** Its value is “disrupting interaction strength”.

**Q.** What about the “effect of a mutation on the interaction” value [2] of the same variant?
**A.** The value was “disrupting interaction strength”.
